Experimental data reported in paper PMC9637641.

Key:
OG488-TFPIα-BR [1] = test: fluorescence polarisation; steady-state fluorescence anisotropy; FV species or APCi titrated (0–100 nM) into 25 nM OG488-TFPIα-BR and 50 μM PCPS vesicles in HBS/Ca2+/PEG, pH 7.4 (20 mM Hepes, 150 mM NaCl, 5 mM CaCl2, 0.1% PEG-8000), 25 °C; fit to a model for tight binding
FV-BR fragment (human) = FV-BR fragment (human) (UniProt P12259)
OG488-TFPIα-BR [2] = target: OG488-TFPIα-BR

Sequence of FV-BR fragment (human) (P12259 979-1036): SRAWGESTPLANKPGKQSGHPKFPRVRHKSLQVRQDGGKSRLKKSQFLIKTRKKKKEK
Sequence of Human FVa (P12259 29-737): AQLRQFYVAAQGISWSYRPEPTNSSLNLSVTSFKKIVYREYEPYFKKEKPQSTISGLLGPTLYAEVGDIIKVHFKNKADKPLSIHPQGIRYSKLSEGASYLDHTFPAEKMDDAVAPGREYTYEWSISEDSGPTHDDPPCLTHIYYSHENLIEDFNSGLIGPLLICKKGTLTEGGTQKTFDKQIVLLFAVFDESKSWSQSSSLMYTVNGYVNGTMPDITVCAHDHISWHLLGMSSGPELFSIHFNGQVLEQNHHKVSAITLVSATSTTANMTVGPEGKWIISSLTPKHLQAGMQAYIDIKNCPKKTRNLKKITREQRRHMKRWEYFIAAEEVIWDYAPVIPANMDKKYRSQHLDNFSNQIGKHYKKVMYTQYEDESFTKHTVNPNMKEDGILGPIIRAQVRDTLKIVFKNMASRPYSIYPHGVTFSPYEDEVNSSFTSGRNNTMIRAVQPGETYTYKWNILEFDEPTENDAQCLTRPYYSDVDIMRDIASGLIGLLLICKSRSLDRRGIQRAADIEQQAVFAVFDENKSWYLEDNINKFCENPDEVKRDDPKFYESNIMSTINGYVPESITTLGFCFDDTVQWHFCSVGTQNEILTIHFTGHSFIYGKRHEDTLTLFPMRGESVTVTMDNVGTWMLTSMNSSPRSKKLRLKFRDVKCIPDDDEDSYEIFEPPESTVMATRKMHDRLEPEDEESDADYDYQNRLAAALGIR
Sequence of Human FVa (P12259 1574-2224): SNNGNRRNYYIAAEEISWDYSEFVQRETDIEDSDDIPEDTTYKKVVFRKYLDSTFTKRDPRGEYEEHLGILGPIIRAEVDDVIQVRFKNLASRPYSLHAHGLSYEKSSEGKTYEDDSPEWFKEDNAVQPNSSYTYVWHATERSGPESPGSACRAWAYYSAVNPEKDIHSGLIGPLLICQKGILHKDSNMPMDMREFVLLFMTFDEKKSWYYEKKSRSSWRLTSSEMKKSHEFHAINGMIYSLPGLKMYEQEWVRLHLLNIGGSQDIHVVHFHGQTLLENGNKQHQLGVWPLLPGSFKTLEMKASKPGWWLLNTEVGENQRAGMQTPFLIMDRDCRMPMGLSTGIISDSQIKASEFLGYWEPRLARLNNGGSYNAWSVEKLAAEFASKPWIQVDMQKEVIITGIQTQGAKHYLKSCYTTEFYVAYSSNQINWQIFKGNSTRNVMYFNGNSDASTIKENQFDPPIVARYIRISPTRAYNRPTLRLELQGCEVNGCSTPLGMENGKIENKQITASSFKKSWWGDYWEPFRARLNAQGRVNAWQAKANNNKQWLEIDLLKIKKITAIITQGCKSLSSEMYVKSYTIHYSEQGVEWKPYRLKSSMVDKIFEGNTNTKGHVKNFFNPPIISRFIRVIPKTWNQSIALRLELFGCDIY

Kd (OG488-TFPIα-BR [1]) [nM] | stoichiometry N (OG488-TFPIα-BR [1]) [mol/mol] | Reduced fold change of inactivation by APC, +FV-BR (kobs no BR divided by kobs +BR; % peak thrombin in TGA; 20 nM FV species, 250 nM BR fragment, 1 nM APC) (FV-BR fragment (human)) [fold] | Reduced fold change of inactivation by APC, +TFPIα-BR (kobs no BR divided by kobs +BR; % peak thrombin in TGA; 20 nM FV species, 250 nM BR fragment, 1 nM APC) (OG488-TFPIα-BR [2]) [fold] | Substance
2.17 | 1.78 | – | – | FV-s46 (from UniProt P12259 29-990; P12259 1037-2224)
2.15 | 1.44 | – | – | FV-810-R306Q
– | – | 15.7 | – | FV-short (natural protein)
1.72 | 1.43 | – | – | FV-810-R506Q
2.46 | 1.18 | – | – | FV-810-R306Q/R506Q
1.78 | 1.29 | 17 | 17 | FV-810
– | – | 0.9 | – | Human FVa (from UniProt P12259 29-737; P12259 1574-2224) (complex)
